Changes are numbered by the printed parent chain. Names and notes keep the numbering of the source.
T1: Human CD3eg linker (human)
T1 construct: Single chain: CD3 epsilon and gamma subunits joined by a 29-mer linker, Flag-tag at the C-terminus; also called recombinant human CD3
T1 chain: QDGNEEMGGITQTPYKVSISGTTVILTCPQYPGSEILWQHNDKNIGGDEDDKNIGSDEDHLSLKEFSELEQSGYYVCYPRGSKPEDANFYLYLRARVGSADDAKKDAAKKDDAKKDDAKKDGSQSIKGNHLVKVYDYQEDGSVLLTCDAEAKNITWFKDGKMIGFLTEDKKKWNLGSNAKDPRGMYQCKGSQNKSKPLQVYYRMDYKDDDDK

B1: dBBDu183 (antibody, human IgG1, V domains shown)
VH: QVQLVESGGGLVQPGRSLRLSCAASGFTFSNAWMHWVRQAPGKGLEWVAQIKDKGNAYAAYYAPSVKGRFTISRDDSKNSIYLQMNSLKTEDTAVYYCHYVHYASASTVLPAFGVDAWGQGTTVTVSS
VL: DIVMTQSPLSLPVTPGEPASISCRSSQSLVHSNRNTYLHWYQQKPGQAPRLLIYKVSNRFSGVPDRFSGSGSGTDFTLKISRVEAEDVGVYYCGQGTQVPYTFGQGTKLEIK
notes: human IgG1; GLS3000 light chain
B2: Dual-Fab H183/L072 variant with single light chain mutation K50Y (Kabat) (antibody, name in Kabat numbering, V domains shown)
VH: B1 VH
VL: B1 VL with R24Q, S25A, S28E, S32M, K55Y, S61P, G94A, Q98S, Y101F
notes: expressed as an antibody in Expi293 and purified on Protein A; also called dBBDu183H / dBBDu072L K50Y
B3: dBBDu179 (antibody, human IgG1, V domains shown)
VH: B1 VH with K54R, G55S, A57Q, A60T
VL: B1 VL
notes: as for B1
B4: Dual-Fab H183/L072 variant with single light chain mutation S52Y (Kabat) (antibody, name in Kabat numbering, V domains shown)
VH: B1 VH
VL: B1 VL with R24Q, S25A, S28E, S32M, S57Y, S61P, G94A, Q98S, Y101F
notes: expressed as an antibody in Expi293 and purified on Protein A; also called dBBDu183H / dBBDu072L S52Y
B5: Dual-Fab H183/L072 variant with single light chain mutation V51Y (Kabat) (antibody, name in Kabat numbering, V domains shown)
VH: B1 VH
VL: B1 VL with R24Q, S25A, S28E, S32M, V56Y, S61P, G94A, Q98S, Y101F
notes: expressed as an antibody in Expi293 and purified on Protein A; also called dBBDu183H / dBBDu072L V51Y
B6: H183/L072 with N53Y (Kabat) in VL dBBDu072L (antibody, name in Kabat numbering, V domains shown)
VH: B1 VH
VL: B1 VL with R24Q, S25A, S28E, S32M, N58Y, S61P, G94A, Q98S, Y101F
notes: Single-mutation variant of H183L072
B7: Dual-Fab H183/L072 variant with single light chain mutation P95Y (Kabat) (antibody, name in Kabat numbering, V domains shown)
VH: B1 VH
VL: B1 VL with R24Q, S25A, S28E, S32M, S61P, G94A, Q98S, P100Y, Y101F
notes: expressed as an antibody in Expi293 and purified on Protein A; also called dBBDu183H / dBBDu072L P95Y
B8: H183/L072 with F55Y (Kabat) in VL dBBDu072L (antibody, name in Kabat numbering, V domains shown)
VH: B1 VH
VL: B1 VL with R24Q, S25A, S28E, S32M, F60Y, S61P, G94A, Q98S, Y101F
notes: as for B6
B9: Dual-Fab H183/L072 variant with single light chain mutation F96Y (Kabat) (antibody, name in Kabat numbering, V domains shown)
VH: B1 VH
VL: B1 VL with R24Q, S25A, S28E, S32M, S61P, G94A, Q98S
notes: expressed as an antibody in Expi293 and purified on Protein A; also called dBBDu183H / dBBDu072L F96Y
B10: Dual-Fab H183/L072 variant with single light chain mutation A89Y (Kabat) (antibody, name in Kabat numbering, V domains shown)
VH: B1 VH
VL: B1 VL with R24Q, S25A, S28E, S32M, S61P, G94Y, Q98S, Y101F
notes: expressed as an antibody in Expi293 and purified on Protein A; also called dBBDu183H / dBBDu072L A89Y
B11: Dual-Fab H183/L072 variant with single light chain mutation T92Y (Kabat) (antibody, name in Kabat numbering, V domains shown)
VH: B1 VH
VL: B1 VL with R24Q, S25A, S28E, S32M, S61P, G94A, T97Y, Q98S, Y101F
notes: expressed as an antibody in Expi293 and purified on Protein A; also called dBBDu183H / dBBDu072L T92Y
B12: Dual-Fab H183/L072 variant with single light chain mutation P56Y (Kabat) (antibody, name in Kabat numbering, V domains shown)
VH: B1 VH
VL: B1 VL with R24Q, S25A, S28E, S32M, S61Y, G94A, Q98S, Y101F
notes: expressed as an antibody in Expi293 and purified on Protein A; also called dBBDu183H / dBBDu072L P56Y
B13: H183/L072 with F96Y (Kabat) in VL dBBDu072L (antibody, name in Kabat numbering, V domains shown)
VH: B1 VH
VL: B1 VL with R24Q, S25A, S28E, S32M, S61P, G94A, Q98S
notes: as for B6
B14: Dual-Fab H183/L072 variant with single light chain mutation V94Y (Kabat) (antibody, name in Kabat numbering, V domains shown)
VH: B1 VH
VL: B1 VL with R24Q, S25A, S28E, S32M, S61P, G94A, Q98S, V99Y, Y101F
notes: expressed as an antibody in Expi293 and purified on Protein A; also called dBBDu183H / dBBDu072L V94Y
B15: H183/L072 with T97Y (Kabat) in VL dBBDu072L (antibody, name in Kabat numbering, V domains shown)
VH: B1 VH
VL: B1 VL with R24Q, S25A, S28E, S32M, S61P, G94A, Q98S, Y101F, T102Y
notes: as for B6

Legend:
[1] = target: T2, biotin-labeled human CD137 fused to human IgG1 Fc fragment (human, UniProt Q07011 24-186, biotin-labeled); assay: bead ELISA, 1250 ng IgG, S/N over biotin-human Fc
T2 construct: also called human CD137-Fc; biotin-human CD137-Fc; not shown: human IgG1 Fc fragment

Human CD137 ECD = target: T3, Human CD137 ECD (human); assay: SPR (Biacore), affinity of single-mutation variant against parental H183/L072
T3 construct: also called human CD137 extracellular domain; hCD137

Human CD3eg linker = target: T1, Human CD3eg linker; assay: affinity relative to template H183/L072, single-mutation scan

T3 sequence (chain, as listed by the source limits assumed): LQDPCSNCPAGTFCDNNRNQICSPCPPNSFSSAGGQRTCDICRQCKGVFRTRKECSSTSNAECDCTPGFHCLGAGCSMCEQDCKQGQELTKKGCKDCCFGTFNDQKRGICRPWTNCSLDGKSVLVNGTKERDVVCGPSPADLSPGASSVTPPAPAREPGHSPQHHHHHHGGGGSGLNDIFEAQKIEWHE
T2 sequence (Q07011 24-186 limits assumed): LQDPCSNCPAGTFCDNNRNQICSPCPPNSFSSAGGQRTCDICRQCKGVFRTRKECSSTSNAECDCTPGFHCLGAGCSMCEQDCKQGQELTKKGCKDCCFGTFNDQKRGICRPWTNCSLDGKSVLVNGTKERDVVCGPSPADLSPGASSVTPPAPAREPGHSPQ

| Binder | fold change of affinity for CD137 (Human CD137 ECD) [fold] | other results |
| --- | --- | --- |
| B1 | – | binding result [1]: binds |
| B2 | 0 | – |
| B3 | – | binding result [1]: binds |
| B4 | 1.2 | – |
| B5 | 0.2 | – |
| B6 | – | fold change of affinity for CD3 (Human CD3eg linker): 0.7 fold |
| B7 | 0 | – |
| B8 | – | fold change of affinity for CD3 (Human CD3eg linker): 10.6 fold |
| B9 | 0.6 | – |
| B10 | 0 | – |
| B11 | 0 | – |
| B12 | 0 | – |
| B13 | – | fold change of affinity for CD3 (Human CD3eg linker): 0.4 fold |
| B14 | 0.1 | – |
| B15 | – | fold change of affinity for CD3 (Human CD3eg linker): 0.2 fold |

— US20210388087A1 (Chugai, published 2021)
